Assay [1] addresses T1, GST/NaPi2b-L fusion protein (aa 188-361 of NaPi2b) (human, UniProt O95436 188-361).
T1 construct: range 188-361; GST is put first here (pGEX vector); also called GST-fusion protein (covering aa 188-361 of NaPi2b); bacterial fusion protein; not shown: glutathione S-transferase (GST) tag of vector pGEX4T1
T1 sequence (looked up): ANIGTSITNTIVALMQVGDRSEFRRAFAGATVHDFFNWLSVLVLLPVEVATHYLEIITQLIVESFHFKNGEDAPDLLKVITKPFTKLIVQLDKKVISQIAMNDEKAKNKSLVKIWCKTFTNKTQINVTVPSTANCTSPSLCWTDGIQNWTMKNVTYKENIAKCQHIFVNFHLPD
The experiment in a line: Western blot.

The target in assay [2] is T2, His-NaPi2b-ECD (His-tagged aa 188-361 of NaPi2b, Sf9 insect cells) (human, UniProt O95436 188-361).
T2 construct: range 188-361; Baculovirus expression; also called His-tagged protein in Sf9 insect cells; not shown: His tag
T2 sequence (looked up): T1 sequence (looked up)
Description: Western blot.

Assay [3] concerns the target T3, NaPi2b mutant T330V expressed in stably transfected HEK293 cells (pcDNA3.1/NaPi2b-T330V) (human, UniProt O95436 1-690).
T3 construct: whole, on cells; Made by site-directed mutagenesis of pcDNA3.1/NaPi2b; also called mutant form T330V; not shown: EE-tag
T3 sequence (looked up): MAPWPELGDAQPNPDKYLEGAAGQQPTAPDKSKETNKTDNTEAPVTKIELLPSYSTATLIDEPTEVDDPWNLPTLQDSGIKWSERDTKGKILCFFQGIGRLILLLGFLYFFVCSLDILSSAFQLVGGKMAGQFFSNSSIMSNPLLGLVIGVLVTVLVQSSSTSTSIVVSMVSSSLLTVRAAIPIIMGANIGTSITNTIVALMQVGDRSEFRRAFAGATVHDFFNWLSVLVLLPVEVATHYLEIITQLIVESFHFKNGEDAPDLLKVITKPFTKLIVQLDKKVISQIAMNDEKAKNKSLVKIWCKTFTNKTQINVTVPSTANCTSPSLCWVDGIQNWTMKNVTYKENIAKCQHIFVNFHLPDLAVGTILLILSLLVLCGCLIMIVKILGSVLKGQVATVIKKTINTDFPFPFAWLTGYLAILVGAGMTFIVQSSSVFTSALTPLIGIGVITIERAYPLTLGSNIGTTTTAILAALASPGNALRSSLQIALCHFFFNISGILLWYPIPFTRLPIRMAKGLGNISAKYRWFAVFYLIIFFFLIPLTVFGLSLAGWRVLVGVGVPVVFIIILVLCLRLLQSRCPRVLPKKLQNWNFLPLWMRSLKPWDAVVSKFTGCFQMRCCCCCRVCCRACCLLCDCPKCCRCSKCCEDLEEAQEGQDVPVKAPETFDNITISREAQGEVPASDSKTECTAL
Description: Western blot of lysates of stably transfected HEK293 cells. As to the method: Stably transfected HEK293 cells were lysed in buffer containing 10 mM Tris-HCl, pH 7.5, 150 mM NaCl, 10 mM MgCL₂, 0,5% NP-40, and a mixture of Halt Protease Inhibitor Cocktail (Pierce, USA). Protein concentration was measured by Bradford assay (Pierce, USA), and equal amounts of proteins (10 μg) were separated in 8% SDS-PAGE and blotted to polyvinylidene difluoride (PVDF) membrane (Millipore, USA). The membrane was blocked with 3% BSA in PBS (phosphate-saline buffer) containing 0.1% Tween-20 (PBST) for 1 h. Anti-NaPi2b and anti-EE-tag antibodies were incubated with membranes at 4° C. overnight. Generation of monoclonal antibodies against the extracellular loop of transporter was previously described. After washing with PBST, HRP-conjugated goat anti-mouse IgG 1:5000 (Promega, USA) was added to the membrane for 1 h at RT. Western blots were developed using the ECL system (Amersham, Sweden) and then exposed to Agfa X-ray film.
The expression of NaPi2b (wild type and mutant forms) in HEK293 was confirmed by Western blot analysis of total cell lysates with anti-EE monoclonal antibody (FIG. 22A) or anti-NaPi2b monoclonal antibodies (FIG. 22B).

Assay [4] concerns the target T4, NaPi2b 312-340 array peptide with Ala at 322 and 328, Ac-INVTVPSTANATSPSLAWTDGIQNWTMKN-amide (human, N-terminal acetyl (Ac-), C-terminal amide).
T4 peptide: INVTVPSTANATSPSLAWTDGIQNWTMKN
Description: synthetic peptide membrane array, 1 ug/ml antibody. As to the method:
(§1) For epitope mapping, membranes were incubated for 3 hours with 1 ug/ml primary antibody, followed by incubation with HRP-labeled goat anti-mouse polyclonal antibodies (Jackson ImmunoResearch Laboratories, West Grove, Pa.) for 2 hours. Bound antibody was visualized by chemiluminescence (Western Lightning Plus). For epitope mapping under reducing condition, membranes were incubated in 1 mM DTT for 1 hour at room temperature, and then washed extensively prior to antibody incubation.

Assay [5] addresses T5, NaPi2b 317-340 array peptide Ac-PSTANCTSPSLCWTDGIQNWTMKN-amide (human, N-terminal acetyl (Ac-), C-terminal amide).
T5 peptide: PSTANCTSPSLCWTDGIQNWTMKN
The experiment in a line: synthetic peptide membrane array, 1 ug/ml antibody. As to the method:
as §1

Assay [6] deals with T6, NaPi2b 312-340 array peptide with Ala at 322, Ac-INVTVPSTANATSPSLCWTDGIQNWTMKN-amide (human, N-terminal acetyl (Ac-), C-terminal amide).
T6 peptide: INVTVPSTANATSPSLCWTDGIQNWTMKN
The experiment in a line: synthetic peptide membrane array, 1 ug/ml antibody. As to the method: as §1

In assay [7] the target is T7, NaPi2b 312-340 array peptide with Ala at 328, Ac-INVTVPSTANCTSPSLAWTDGIQNWTMKN-amide (human, N-terminal acetyl (Ac-), C-terminal amide).
T7 peptide: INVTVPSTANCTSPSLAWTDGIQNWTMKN
Description: synthetic peptide membrane array, 1 ug/ml antibody. On the procedure:
as §1

The target in assay [8] is T8, NaPi2b 320-340 array peptide Ac-ANCTSPSLCWTDGIQNWTMKN-amide (human, N-terminal acetyl (Ac-), C-terminal amide).
T8 peptide: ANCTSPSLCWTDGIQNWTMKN
The experiment in a line: synthetic peptide membrane array, 1 ug/ml antibody. As to the method: as §1

Assay [9] has as its target T9, NaPi2b 324-338 array peptide Ac-SPSLCWTDGIQNWTM-amide (human).
T9 peptide: Ac-SPSLCWTDGIQNWTM-NH2
The experiment in a line: synthetic peptide membrane array, 1 ug/ml antibody. On the procedure:
as §1

In assay [10] the target is T10, NaPi2b 312-340 array peptide Ac-INVTVPSTANCTSPSLCWTDGIQNWTMKN-amide (human, N-terminal acetyl (Ac-), C-terminal amide).
T10 peptide: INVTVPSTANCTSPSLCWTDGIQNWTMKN
Description: synthetic peptide membrane array, 1 ug/ml antibody. On the procedure: as §1

These results are taken from patent US20140193417A1 (LUDWIG INSTITUTE FOR CANCER RESEARCH, published 2014).

B1: Murine mAb MX35 (IgG1) (antibody, V domains shown)
VH: QVQLKQSGAELVKPGASVKMSCKASGYTFTGYNIHWVKQTPGQGLEWIGAIYPGNGDTSYKQKFRGKASLTADTSSSTVYMQLSSLTSEDSAVYYCARGETARATFAYWGQGTLVTVSA
VL: DIQMTQTTSSLPASLGDRVTISCSASQDIGNFLNWYQQKPDGTVKVLIYYTSSLYSGVPSRFSGSGSGTDYSLTISNLEPEDIATYYCQQYSKLPLTFGAGTKLELKR
notes: also called MX35 MAb; monoclonal antibody MX35
On to B1, for which the binding result in assay [1] is on record as “binds”; in assay [2], “binds”; in assay [3], “no binding”; in assay [4], “binds”; in [5] it was “binds”; in [6], “binds”. The binding result in assay [7], in assay [8], in assay [9] and in assay [10] was “binds” throughout.
